According to publication PMC10696396, “HilE represses the activity of the Salmonella virulence regulator HilD via a mechanism distinct from that of intestinal long-chain fatty acids” (The Journal of Biological Chemistry, 2023):

Tests used:
[1] = molecular target: T1, EYFP-HilD (Salmonella enterica, UniProt P0CL08 1-309); experiment: MST; homodimerization: unlabeled HilD titrated against EYFP-HilD preincubated with 1% DMSO; MST on-time 1.5 s, 25 °C; conditions: both partners purified
T1 construct: HilD of Salmonella enterica, UniProt P0CL08; eyfp was ligated (BamHI/EheI) into the SUMO-HilD expression vector that gives the full-length HilD; EYFP is the fluorescent label used for MST detection; also called EYFP-HilD fusion protein; source: E. coli C41(DE3), purified (Ni-NTA, SUMO protease cleavage, second Ni-NTA, SEC on Superdex 200); not shown: His6-SUMO, N-terminal, cleaved; EYFP, …
T1 sequence: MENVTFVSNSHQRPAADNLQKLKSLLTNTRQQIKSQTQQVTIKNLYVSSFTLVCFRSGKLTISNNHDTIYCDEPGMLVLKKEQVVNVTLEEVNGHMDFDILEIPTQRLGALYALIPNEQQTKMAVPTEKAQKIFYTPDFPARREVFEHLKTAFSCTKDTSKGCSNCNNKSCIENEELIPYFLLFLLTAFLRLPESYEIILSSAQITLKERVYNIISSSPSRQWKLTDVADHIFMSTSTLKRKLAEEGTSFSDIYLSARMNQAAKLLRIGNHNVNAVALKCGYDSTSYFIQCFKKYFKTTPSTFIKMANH

[2] = molecular target: the molecule itself; experiment: SEC-MALS; Superdex 75 Increase 10/300 GL, 50 mM NaH2PO4 pH 7.0, 200 mM NaCl, 0.5 ml/min; protein concentrations of 100 μM (Fig. 4, D and E)
[3] = molecular target: T1, EYFP-HilD; experiment: MST; homodimerization: unlabeled HilD (3.05 nM to 100 μM) titrated against 50 nM EYFP-HilD; 25 °C, 0.05% Pluronic F-127, protein storage buffers; dimer to monomers; conditions: both partners purified

B1: HilD (full-length, unfused) (natural protein)
chain: MENVTFVSNSHQRPAADNLQKLKSLLTNTRQQIKSQTQQVTIKNLYVSSFTLVCFRSGKLTISNNHDTIYCDEPGMLVLKKEQVVNVTLEEVNGHMDFDILEIPTQRLGALYALIPNEQQTKMAVPTEKAQKIFYTPDFPARREVFEHLKTAFSCTKDTSKGCSNCNNKSCIENEELIPYFLLFLLTAFLRLPESYEIILSSAQITLKERVYNIISSSPSRQWKLTDVADHIFMSTSTLKRKLAEEGTSFSDIYLSARMNQAAKLLRIGNHNVNAVALKCGYDSTSYFIQCFKKYFKTTPSTFIKMANH
notes: HilD, AraC/XylS transcription regulator of Salmonella enterica, UniProt P0CL08; Exclusively a homodimer alone by SEC-MALS; a single copy stands in the 1:1 complex with HilE; also called unlabeled HilD; unfused HilD; source: E. coli C41(DE3), purified (Ni-NTA, SUMO protease cleavage, second Ni-NTA, SEC); not shown: His6-SUMO, N-terminal, cleaved
For B1, the Kd [1] was 4.33 ± 0.72 µM, the “stoichiometry N” value [2] was 2 and the Kd [3] was 3.85 ± 0.63 µM.

B2: HilD NTD (residues 7-206) (domain or fragment)
chain: VSNSHQRPAADNLQKLKSLLTNTRQQIKSQTQQVTIKNLYVSSFTLVCFRSGKLTISNNHDTIYCDEPGMLVLKKEQVVNVTLEEVNGHMDFDILEIPTQRLGALYALIPNEQQTKMAVPTEKAQKIFYTPDFPARREVFEHLKTAFSCTKDTSKGCSNCNNKSCIENEELIPYFLLFLLTAFLRLPESYEIILSSAQIT
notes: a His6 tag stands in place of the first six residues of HilD; No cleavage of the His6 tag is described (no protease site, purification goes from Ni-NTA to SEC); also called HilD_(7-206) (NTD); His6-tagged HilD NTD construct; source: E. coli C41(DE3), purified (Ni-NTA, SEC on Superdex 75); not shown: His6, N-terminal, kept
In the case of B2, the “stoichiometry N” value [2] is reported as 2.
